Changes are numbered by the printed parent chain.
T1: Human PTK7/CCK4 Protein, His Tag, Acro Biosystems PT7-H52H3 (human, UniProt Q13308 31-704)
T1 construct: bought protein; also called Human PTK7 Protein, His Tag, Acro Biosystems; not shown: His tag
T1 sequence: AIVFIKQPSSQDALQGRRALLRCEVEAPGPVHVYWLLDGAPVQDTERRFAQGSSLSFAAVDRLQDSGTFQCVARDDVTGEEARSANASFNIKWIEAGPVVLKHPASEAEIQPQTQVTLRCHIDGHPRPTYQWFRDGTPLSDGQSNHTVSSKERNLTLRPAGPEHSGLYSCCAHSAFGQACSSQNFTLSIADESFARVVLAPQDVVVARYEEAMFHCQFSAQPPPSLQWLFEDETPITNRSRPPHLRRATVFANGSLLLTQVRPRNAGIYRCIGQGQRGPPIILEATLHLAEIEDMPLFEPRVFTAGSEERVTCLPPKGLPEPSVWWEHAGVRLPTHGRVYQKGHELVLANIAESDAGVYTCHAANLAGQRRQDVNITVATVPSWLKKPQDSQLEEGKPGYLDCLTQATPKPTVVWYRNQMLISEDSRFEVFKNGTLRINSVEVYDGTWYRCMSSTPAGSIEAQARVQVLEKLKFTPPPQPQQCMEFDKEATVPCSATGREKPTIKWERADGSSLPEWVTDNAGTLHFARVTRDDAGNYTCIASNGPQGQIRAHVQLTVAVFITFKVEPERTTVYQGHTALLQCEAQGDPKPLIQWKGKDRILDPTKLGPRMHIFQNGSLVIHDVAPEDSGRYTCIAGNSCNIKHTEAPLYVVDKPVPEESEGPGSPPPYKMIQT

B1: MYT10963 (antibody, V domains shown)
VH: EVQLVESGGGLVQPGGSLRLSCTASGFSLSSYAMGWVRQAPGKGLEWVGFIHAGGNTYYANWAKGRFTISRDTSKNTVYLQMNSLRAEDTAVYFCARRYSRASGWYDLWGQGTLVTVSS
VL: EIVMTQSPSTLSASVGDRVIITCQASQSISSYLAWYQQKPGKAPKLLIYAASTLASGVPSRFSGSGSGAEFTLTISSLQPDDFATYYCQSYSYSSGIDYGDVFGQGTKLTVL
notes: IgG
B2: MYT10997 (antibody, V domains shown)
VH: B1 VH with H52N
VL: B1 VL with I29H
notes: IgG
B3: MYT10980 (antibody, V domains shown)
VH: B1 VH with H52N, Y99H
VL: B1 VL
notes: IgG
B4: MYT10998 (antibody, V domains shown)
VH: B1 VH with H52N
VL: B1 VL with S30H
notes: IgG
B5: MYT11000 (antibody, V domains shown)
VH: B1 VH with H52N
VL: B1 VL with Y32H
notes: IgG
B6: MYT11013 (antibody, V domains shown)
VH: B1 VH with H52N
VL: B1 VL with S92H
notes: IgG
B7: MYT11006 (antibody, V domains shown)
VH: B1 VH with H52N
VL: B1 VL with T53H
notes: IgG
B8: MYT10974 (antibody, V domains shown)
VH: B1 VH with H52N, A63H
VL: B1 VL
notes: IgG
B9: MYT11001 (antibody, V domains shown)
VH: B1 VH with H52N
VL: B1 VL with L33H
notes: IgG
B10: MYT11004 (antibody, V domains shown)
VH: B1 VH with H52N
VL: B1 VL with A51H
notes: IgG
B11: MYT11018 (antibody, V domains shown)
VH: B1 VH with H52N
VL: B1 VL with I97H
notes: IgG
B12: MYT10999 (antibody, V domains shown)
VH: B1 VH with H52N
VL: B1 VL with S31H
notes: IgG
B13: MYT10970 (antibody, V domains shown)
VH: B1 VH with H52N, Y59H
VL: B1 VL
notes: IgG
B14: MYT11003 (antibody, V domains shown)
VH: B1 VH with H52N
VL: B1 VL with A50H
notes: IgG
B15: MYT11010 (antibody, V domains shown)
VH: B1 VH with H52N
VL: B1 VL with Q89H
notes: IgG
B16: MYT10993 (antibody, V domains shown)
VH: B1 VH with H52N
VL: B1 VL with A25H
notes: IgG
B17: MYT11014 (antibody, V domains shown)
VH: B1 VH with H52N
VL: B1 VL with Y93H
notes: IgG
B18: MYT10969 (antibody, V domains shown)
VH: B1 VH with H52N, Y58H
VL: B1 VL
notes: IgG
B19: MYT11021 (antibody, V domains shown)
VH: B1 VH with H52N
VL: B1 VL with G100H
notes: IgG
B20: MYT11023 (antibody, V domains shown)
VH: B1 VH with H52N
VL: B1 VL with V102H
notes: IgG
B21: MYT11012 (antibody, V domains shown)
VH: B1 VH with H52N
VL: B1 VL with Y91H
notes: IgG
B22: MYT10966 (antibody, V domains shown)
VH: B1 VH with H52N, G55H
VL: B1 VL
notes: IgG
B23: MYT10978 (antibody, V domains shown)
VH: B1 VH with H52N, R97H
VL: B1 VL
notes: IgG
B24: MYT11103 (antibody, V domains shown)
VH: EVQLVESGGGLVQPGGSLRLSCTASGHSLSTYAMSWVRQAPGKGLEWVGMIYINDNTYYASWAKGRFTISRDTSKNTVYLQMNSLRAEDTAVYFCARDIGISYYIGVSLWGQGTLVTVSS
VL: EIVMTQSPSTLSASVGDRVIITCQASQSIGTRLSWYQQKPGKAPKLLIYGASKLATGVPSRFSGSGSGAEFTLTISSLQPDDFATYYCLGEYSYTTTDGIAFGQGTKLTVL
notes: IgG
B25: MYT11150 (antibody, V domains shown)
VH: B24 VH with H27F
VL: B24 VL with I29H
notes: IgG
B26: MYT11107 (antibody, V domains shown)
VH: B24 VH with H27F, T31H
VL: B24 VL
notes: IgG
B27: MYT11115 (antibody, V domains shown)
VH: B24 VH with H27F, I53H
VL: B24 VL
notes: IgG
B28: MYT11120 (antibody, V domains shown)
VH: B24 VH with H27F, Y58H
VL: B24 VL
notes: IgG
B29: MYT11136 (antibody, V domains shown)
VH: B24 VH with H27F, Y104H
VL: B24 VL
notes: IgG
B30: MYT11105 (antibody, V domains shown)
VH: B24 VH with H27F, L29H
VL: B24 VL
notes: IgG
B31: MYT11117 (antibody, V domains shown)
VH: B24 VH with H27F, D55H
VL: B24 VL
notes: IgG
B32: MYT11108 (antibody, V domains shown)
VH: B24 VH with H27F, Y32H
VL: B24 VL
notes: IgG
B33: MYT11146 (antibody, V domains shown)
VH: B24 VH with H27F
VL: B24 VL with A25H
notes: IgG
B34: MYT11106 (antibody, V domains shown)
VH: B24 VH with H27F, S30H
VL: B24 VL
notes: IgG
B35: MYT11137 (antibody, V domains shown)
VH: B24 VH with H27F, I105H
VL: B24 VL
notes: IgG
B36: MYT11134 (antibody, V domains shown)
VH: B24 VH with H27F, S102H
VL: B24 VL
notes: IgG
B37: MYT11093 (antibody, V domains shown)
VH: EVQLVESGGGLVQPGGSLRLSCTASGLSLSSYWMSWVRQAPGKGLEWVGVISAGGNTYYANWAKGRFTISRDTSKNTVYLQMNSLRAEDTAVYFCARGDDGYTNAAYVSNLWGQGTLVTVSS
VL: EIVMTQSPSTLSASVGDRVIITCQASQSISSWLSWYQQKPGKAPKLLIYKASTLASGVPSRFSGSGSGAEFTLTISSLQPDDFATYYCQSYHDSTTIAFGQGTKLTVL
notes: IgG

Target: T1, Human PTK7/CCK4 Protein, His Tag, Acro …
Assay: BLI, antibody on anti-human Fc sensor, 50 nM PTK7

Binding result, binds:
B1, B2, B3, B4, B5, B6, B7, B8, B9, B10, B11, B12, B13, B14, B15, B16, B17, B18, B19, B20, B21, B22, B23, B24, B25, B26, B27, B28, B29, B30, B31, B32, B33, B34, B35, B36, B37
